Biological target: flag-tagged Ran Q69L (GTPase-inactive mutant, RanGTP locked form), P62826
Assay: co-IP
Settings: remark: other sources report otherwise

fold co-precipitated (IPO5/Ran) against Ran T24N: 2 fold
B1: EGFP-tagged full length human IPO5 (importin 5), O00410-3 1-1115 (natural protein)
chain: MPEDQVGKLEATENTISAMAAAAAEQQQFYLLLGNLLSPDNVVRKQAEETYENIPGQSKITFLLQAIRNTTAAEEARQMAAVLLRRLLSSAFDEVYPALPSDVQTAIKSELLMIIQMETQSSMRKKVCDIAAELARNLIDEDGNNQWPEGLKFLFDSVSSQNVGLREAALHIFWNFPGIFGNQQQHYLDVIKRMLVQCMQDQEHPSIRTLSARATAAFILANEHNVALFKHFADLLPGFLQAVNDSCYQNDDSVLKSLVEIADTVPKYLRPHLEATLQLSLKLCGDTSLNNMQRQLALEVIVTLSETAAAMLRKHTNIVAQTIPQMLAMMVDLEEDEDWANADELEDDDFDSNAVAGESALDRMACGLGGKLVLPMIKEHIMQMLQNPDWKYRHAGLMALSAIGEGCHQQMEGILNEIVNFVLLFLQDPHPRVRYAACNAVGQMATDFAPGFQKKFHEKVIAALLQTMEDQGNQRVQAHAAAALINFTEDCPKSLLIPYLDNLVKHLHSIMVLKLQELIQKGTKLVLEQVVTSIASVADTAEEKFVPYYDLFMPSLKHIVENAVQKELRLLRGKTIECISLIGLAVGKEKFMQDASDVMQLLLKTQTDFNDMEDDDPQISYMISAWARMCKILGKEFQQYLPVVMGPLMKTASIKPEVALLDTQDMENMSDDDGWEFVNLGDQQSFGIKTAGLEEKSTACQMLVCYAKELKEGFVEYTEQVVKLMVPLLKFYFHDGVRVAAAESMPLLLECARVRGPEYLTQMWHFMCDALIKAIGTEPDSDVLSEIMHSFAKCIEVMGDGCLNNEHFEELGGILKAKLEEHFKNQELRQVKRQDEDYDEQVEESLQDEDDNDVYILTKVSDILHSIFSSYKEKVLPWFEQLLPLIVNLICPHRPWPDRQWGLCIFDDVIEHCSPASFKYAEYFLRPMLQYVCDNSPEVRQAAAYGLGVMAQYGGDNYRPFCTEALPLLVRVIQSADSKTKENVNATENCISAVGKIMKFKPDCVNVEEVLPHWLSWLPLHEDKEEAVQTFNYLCDLIESNHPIVLGPNNTNLPKIFSIIAEGEMHEAIKHEDPCAKRLANVVRQVQTSGGLWTECIAQLSPEQQAAIQELLNSA

— PMC3458550
